In article PMC11855606:

How the values were obtained:
[1] = biological target: growth hormone receptor a (ghra) of Cynoglossus semilaevis, mScarlet-I fusion (pcDNA3.1-S-ghra) (Cynoglossus semilaevis); assay: FRET or BRET; acceptor bleaching FRET in HEK 293T cells co-transfected with the mNeonGreen-ligand and mScarlet-I-receptor plasmids at a 1:2 ratio, 48 h after transfection, Nikon A1R HD25 confocal microscope; FRETeff = (Dpost - Dpre)/Dpost
[2] = biological target: growth hormone receptor b (ghrb) of Cynoglossus semilaevis, mScarlet-I fusion (pcDNA3.1-S-ghrb) (Cynoglossus semilaevis); assay: as above
Sequence of growth hormone receptor b (ghrb) of Cynoglossus semilaevis, mScarlet-I fusion (pcDNA3.1-S-ghrb) (Cynoglossus semilaevis) (main, as listed by the source): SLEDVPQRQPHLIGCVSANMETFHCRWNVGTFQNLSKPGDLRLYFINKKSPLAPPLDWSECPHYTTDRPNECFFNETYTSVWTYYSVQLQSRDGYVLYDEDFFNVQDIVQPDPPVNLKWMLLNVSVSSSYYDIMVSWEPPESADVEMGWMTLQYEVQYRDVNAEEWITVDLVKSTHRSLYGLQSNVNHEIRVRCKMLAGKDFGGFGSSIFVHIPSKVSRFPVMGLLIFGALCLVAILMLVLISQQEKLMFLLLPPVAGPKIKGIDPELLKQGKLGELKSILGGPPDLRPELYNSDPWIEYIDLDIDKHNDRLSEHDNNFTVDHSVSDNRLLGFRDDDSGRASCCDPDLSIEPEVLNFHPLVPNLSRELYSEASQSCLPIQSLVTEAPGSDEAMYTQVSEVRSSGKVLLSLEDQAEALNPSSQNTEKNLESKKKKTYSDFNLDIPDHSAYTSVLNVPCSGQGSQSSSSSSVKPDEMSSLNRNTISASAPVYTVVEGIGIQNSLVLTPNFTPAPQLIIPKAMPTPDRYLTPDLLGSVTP

Sequence of growth hormone receptor a (ghra) of Cynoglossus semilaevis, mScarlet-I fusion (pcDNA3.1-S-ghra) (Cynoglossus semilaevis) (main, as listed by the source): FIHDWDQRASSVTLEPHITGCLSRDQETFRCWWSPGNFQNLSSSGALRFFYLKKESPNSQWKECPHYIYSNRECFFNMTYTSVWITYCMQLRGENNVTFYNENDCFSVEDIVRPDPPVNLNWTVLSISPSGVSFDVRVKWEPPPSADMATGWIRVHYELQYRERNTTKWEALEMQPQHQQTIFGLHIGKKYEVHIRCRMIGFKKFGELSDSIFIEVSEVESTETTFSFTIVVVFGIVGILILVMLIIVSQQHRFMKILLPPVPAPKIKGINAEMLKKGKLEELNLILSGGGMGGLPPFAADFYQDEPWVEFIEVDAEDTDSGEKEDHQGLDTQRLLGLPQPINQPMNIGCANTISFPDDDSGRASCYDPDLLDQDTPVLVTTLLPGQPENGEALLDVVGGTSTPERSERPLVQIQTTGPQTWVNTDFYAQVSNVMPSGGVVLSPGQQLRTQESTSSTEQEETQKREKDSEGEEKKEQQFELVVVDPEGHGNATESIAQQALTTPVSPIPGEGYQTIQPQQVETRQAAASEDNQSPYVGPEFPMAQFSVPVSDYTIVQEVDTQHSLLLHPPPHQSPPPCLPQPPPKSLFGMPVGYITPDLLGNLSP

Row | FRET efficiency [1] | FRET efficiency [2] | Substance
1 | 0.0509 |  | somatolactin (sl) of Cynoglossus semilaevis, mNeonGreen fusion (pcDNA3.1-N-sl) (ligand)
2 | 0.0534 | 0.036 | growth hormone (gh) of Cynoglossus semilaevis, mNeonGreen fusion (pcDNA3.1-N-gh) (ligand)
